Positions of bridges follow the written chain, without caps; N, C: chain ends.
T1: human IL-5Rα extracellular domain (Homo sapiens, UniProt Q01344)
T1 construct: human IL-5Rα extracellular domain harvest; made in house; host or cells: CHO cells
T1 sequence (Q01344 21-342 limits assumed): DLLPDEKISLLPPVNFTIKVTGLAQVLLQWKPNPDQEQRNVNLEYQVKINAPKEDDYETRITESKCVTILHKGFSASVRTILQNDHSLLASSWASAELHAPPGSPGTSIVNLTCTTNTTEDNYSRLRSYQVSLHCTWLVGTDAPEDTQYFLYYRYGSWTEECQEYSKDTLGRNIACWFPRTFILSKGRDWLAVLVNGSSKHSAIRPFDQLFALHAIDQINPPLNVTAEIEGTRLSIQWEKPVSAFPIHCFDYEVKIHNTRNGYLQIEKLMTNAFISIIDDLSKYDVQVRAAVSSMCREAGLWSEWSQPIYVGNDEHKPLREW

T2: human IL-5 receptor (Homo sapiens, UniProt P32927+Q01344)
T2 construct: endogenous in cells; host or cells: HL60 subclone induced towards eosinophil differentiation with sodium butyrate
T2 sequence (Q01344 21-420): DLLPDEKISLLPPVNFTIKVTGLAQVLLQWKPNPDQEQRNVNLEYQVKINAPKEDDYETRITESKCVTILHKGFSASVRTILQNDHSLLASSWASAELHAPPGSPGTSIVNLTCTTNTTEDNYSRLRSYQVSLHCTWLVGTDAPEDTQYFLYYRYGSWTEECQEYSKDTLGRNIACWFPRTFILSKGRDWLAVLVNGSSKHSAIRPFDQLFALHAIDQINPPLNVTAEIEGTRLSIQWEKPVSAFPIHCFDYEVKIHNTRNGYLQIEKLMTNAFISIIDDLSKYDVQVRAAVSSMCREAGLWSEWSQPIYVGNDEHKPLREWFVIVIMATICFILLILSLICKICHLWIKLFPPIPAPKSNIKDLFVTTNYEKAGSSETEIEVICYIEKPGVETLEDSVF
T2 sequence (P32927 17-897): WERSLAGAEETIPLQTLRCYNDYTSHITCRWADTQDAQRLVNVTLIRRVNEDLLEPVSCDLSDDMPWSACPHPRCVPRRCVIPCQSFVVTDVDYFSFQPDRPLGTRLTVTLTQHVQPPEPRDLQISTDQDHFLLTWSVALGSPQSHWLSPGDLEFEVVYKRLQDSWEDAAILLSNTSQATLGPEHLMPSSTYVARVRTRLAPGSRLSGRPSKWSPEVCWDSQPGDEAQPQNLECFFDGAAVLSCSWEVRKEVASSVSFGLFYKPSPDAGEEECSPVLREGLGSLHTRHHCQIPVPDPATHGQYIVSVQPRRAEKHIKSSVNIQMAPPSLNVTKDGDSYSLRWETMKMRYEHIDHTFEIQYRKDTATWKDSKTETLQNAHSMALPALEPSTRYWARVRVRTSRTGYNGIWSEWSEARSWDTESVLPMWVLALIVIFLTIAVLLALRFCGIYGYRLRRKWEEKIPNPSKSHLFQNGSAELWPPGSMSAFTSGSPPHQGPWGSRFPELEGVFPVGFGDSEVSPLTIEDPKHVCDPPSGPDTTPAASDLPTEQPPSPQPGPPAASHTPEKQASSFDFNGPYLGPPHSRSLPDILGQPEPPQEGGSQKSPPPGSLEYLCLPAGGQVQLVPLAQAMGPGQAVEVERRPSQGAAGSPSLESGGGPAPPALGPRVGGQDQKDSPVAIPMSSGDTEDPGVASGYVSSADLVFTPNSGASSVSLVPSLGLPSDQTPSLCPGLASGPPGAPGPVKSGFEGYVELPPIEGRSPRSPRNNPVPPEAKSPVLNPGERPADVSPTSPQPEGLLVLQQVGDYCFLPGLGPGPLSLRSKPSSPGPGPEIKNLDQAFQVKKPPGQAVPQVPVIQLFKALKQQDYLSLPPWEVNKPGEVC

T3: human IL-5Rα extracellular domain harvest with a MAb 179 epitope tag (human, UniProt Q01344 21-342)
T3 construct: extracellular domain; Captured on MAb179-conjugated AlphaScreen acceptor beads; also called IL-5 receptor; IL-5R-α chain ECD
T3 sequence (looked up): T1 sequence (Q01344 21-342 limits assumed)


Target: T1, human IL-5Rα extracellular domain
Assay: IL-5 receptor-ligand Alpha Quest binding assay (alanine scan of AF17121, FIG. 1)
Conditions: relative to parent monomer AF17121 (SEQ ID NO:1); single Ala substitution
Protocol: The affinity of compounds for the IL-5 receptor was tested in a homogeneous Alpha Quest binding assay. The peptides tested were solubilized at approximately 10 mM in DMSO. Each peptide was then serially diluted into freshly made, sterile filtered assay buffer (40 mM Hepes, pH 7.4 with NaOH, containing 1 mM MgCl2, 0.1% BSA and 0.05% Tween-20). Four microliters of each test compound dilution was transferred in triplicate to a 384-well, low volume, white, polypropylene Griener plate (E&K Scientific #31075). A mixture was prepared in assay buffer containing Packard Bioscience AlphaScreen streptavidin coated donor beads at […], MAb179 (prepared as described in Whitehom, E., A Generic Method for Expression and Use of “Tagged” Soluble Versions of Cell Surface Receptor, Biotechnolgy 1995, 13, 1215-1219) conjugated Packard Bioscience Alpha Screen acceptor beads per manufactures protocol, at 40 ug/mL, and human IL-5Rα extracellular domain harvest with a MAb 179 epitope tag prepared as previously described (England, B., A Potent Dimeric Peptide Antagonist of Interleukin-5 that Binds Two Interleukin-5 Receptor α Chains, PNAS, vol.97, no. 12, 6862-6867). Two microliters of beads and receptor harvest mixture were added to each assay well. Alpha Quest beads are light sensitive so all steps after the introduction of the beads were carried out under green lighting (lights adapted with Roscolux Chroma Green #389 filter sleeves which transmit <1% at 680 nm). After a 5-10 minute room temperature incubation, two microliters of 62.4 nM biotinylated MBP-AF12368, GEVCTRDVANHRWMCGVD (SEQ ID NO 73), tracer peptide (prepared as described in Schatz P., Use of Peptide Libraries to Map the Substrate Specificity of a Peptide-Modifying Enzyme: A 13 Residue Consensus Peptide Specifies Biotinylation in Escherichia coli, Biotechnology 1993, 11, 1138-1143) diluted in assay buffer was added to each well. The assay plate was spun to 55 rpm in a plate centrifuge, sealed with Packard Top Seal, wrapped in foil and placed in a room temperature incubator in the instrument room. The plate was read after 16-20 hours using a Packard Bioscience Alpha Quest Discovery™ plate reader.
Results for various compound embodiments of the invention are depicted in FIGS. 1-4 and 6-8.

Row | Molecule | more potent (peptide monomer with single alanine substitution)
1 | Ac-ADECWRIIASHTWFCAEE-NH2 (cysteine pairing not given here) [AF35921] | about 350%
2 | Ac-VDECWRIIAAHTWFCAEE-NH2 (cysteine pairing not given here) [AF35912] | about 450%
3 | Ac-VDECWRIIASHAWFCAEE-NH2 (cysteine pairing not given here) [AF35910] | about 135%
4 | Ac-Val Ala Glu Cys Trp Arg Ile Ile Ala Ser His Thr Trp Phe Cys Ala Glu Glu-NH2 (Ac-VAECWRIIASHTWFCAEE-NH2; not fully specified (bridges); printed as Ac-Val Ala Glu Cys Trp Arg Ile Ile Ala Ser His Thr Trp Phe Cys Ala Glu Glu-NH2; cysteine pairing not given here) [AF35920] | about 200%
5 | Ac-Val Asp Ala Cys Trp Arg Ile Ile Ala Ser His Thr Trp Phe Cys Ala Glu Glu-NH2 (Ac-VDACWRIIASHTWFCAEE-NH2; not fully specified (bridges); printed as Ac-Val Asp Ala Cys Trp Arg Ile Ile Ala Ser His Thr Trp Phe Cys Ala Glu Glu-NH2; cysteine pairing not given here) [AF35918] | about 675%

Target: T2, human IL-5 receptor
Assay: not given
Conditions: high affinity IL-5 binding sites; HL60 subclone, eosinophilic differentiation initiated with sodium butyrate; cited from earlier work

Row | Molecule | Kd
6 | IL-5: lymphokine secreted by T cells and mast cells, having biological activities on B cells and eosinophils | 0.03 nM

Target: T3, human IL-5Rα extracellular domain …
Assay: alanine scan of AF17121, AlphaQuest competition binding assay on human IL-5Rα ECD with the tracer biotinylated MBP-AF12368 (the assay is named by FIG. 1, not by the sentence)
Conditions: not given
Protocol: The affinity of compounds for the IL-5 receptor was tested in a homogeneous Alpha Quest binding assay. The peptides tested were solubilized at approximately 10 mM in DMSO. Each peptide was then serially diluted into freshly made, sterile filtered assay buffer (40 mM Hepes, pH 7.4 with NaOH, containing 1 mM MgCl₂, 0.1% BSA and 0.05% Tween-20). Four microliters of each test compound dilution was transferred in triplicate to a 384-well, low volume, white, polypropylene Griener plate (E&K Scientific #31075). A mixture was prepared in assay buffer containing Packard Bioscience AlphaScreen streptavidin coated donor beads at […], MAb179 (prepared as described in Whitehom, E., A Generic Method for Expression and Use of “Tagged” Soluble Versions of Cell Surface Receptor, Biotechnolgy 1995, 13, 1215-1219) conjugated Packard Bioscience Alpha Screen acceptor beads per manufactures protocol, at 40 ug/mL, and human IL-5Rα extracellular domain harvest with a MAb 179 epitope tag prepared as previously described (England, B., A Potent Dimeric Peptide Antagonist of Interleukin-5 that Binds Two Interleukin-5 Receptor α Chains, PNAS, vol.97, no. 12, 6862-6867). Two microliters of beads and receptor harvest mixture were added to each assay well. Alpha Quest beads are light sensitive so all steps after the introduction of the beads were carried out under green lighting (lights adapted with Roscolux Chroma Green #389 filter sleeves which transmit <1% at 680 nm). After a 5-10 minute room temperature incubation, two microliters of 62.4 nM biotinylated MBP-AF12368, […] (SEQ ID NO 73), tracer peptide (prepared as described in Schatz P., Use of Peptide Libraries to Map the Substrate Specificity of a Peptide-Modifying Enzyme: A 13 Residue Consensus Peptide Specifies Biotinylation in Escherichia coli, Biotechnology 1993, 11, 1138-1143) diluted in assay buffer was added to each well. The assay plate was spun to 55 rpm in a plate centrifuge, sealed with Packard Top Seal, wrapped in foil and placed in a room temperature incubator in the instrument room. The plate was read after 16-20 hours using a Packard Bioscience Alpha Quest Discovery™ plate reader.

Row | Molecule | percent more potent than AF17121 (SEQ ID NO: 1)
7 | Ac-VAECWRIIASHTWFCAEE-NH2 (disulfide 4-15 (inferred)) [AF35920 (Ac-Val Ala Glu Cys Trp Arg Ile Ile Ala Ser His Thr Trp Phe Cys Ala Glu Glu-NH2)] | ~200%
8 | Ac-VDACWRIIASHTWFCAEE-NH2 (disulfide 4-15 (inferred)) [AF35918 (Ac-Val Asp Ala Cys Trp Arg Ile Ile Ala Ser His Thr Trp Phe Cys Ala Glu Glu-NH2)] | ~675%
9 | Ac-VDECWRIIASHAWFCAEE-NH2 (disulfide 4-15 (inferred)) [AF35910 (Ac-Val Asp Glu Cys Trp Arg Ile Ile Ala Ser His Ala Trp Phe Cys Ala Glu Glu-NH2)] | ~135%
10 | Ac-VDECWRIIAAHTWFCAEE-NH2 (disulfide 4-15 (inferred)) [AF35912 (Ac-Val Asp Glu Cys Trp Arg Ile Ile Ala Ala His Thr Trp Phe Cys Ala Glu Glu-NH2)] | ~450%
11 | Ac-ADECWRIIASHTWFCAEE-NH2 (disulfide 4-15 (inferred)) [AF35921 (Ac-Ala Asp Glu Cys Trp Arg Ile Ile Ala Ser His Thr Trp Phe Cys Ala Glu Glu-NH2)] | ~350%

— US20060014680A1, “Peptides and compounds that bind to the IL-5 receptor” (priority 2004, published 2006)
